From patent publication US20120100142A1

Legend:
Test in all cases: cell-based or functional assay
[1] = target: HA of A/Mexico/4108/09 (2009 A (H1N1)) virus (influenza A/Mexico/4108/2009 (H1N1) virus)
[2] = target: HA of influenza A/Swine/Iowa/15/30 (H1N1) virus (influenza A/Swine/Iowa/15/30 (H1N1) virus)
[3] = target: HA of influenza A/USSR/92/77 (H1N1) virus (influenza A/USSR/92/77 (H1N1) virus)
[4] = target: HA of influenza A/Weiss/43 (H1N1) virus (influenza A/Weiss/43 (H1N1) virus)

mAb 1F1 (antibody)
HAI, specific activity of indicated mAb [1]: > 5 µg/mL | Neut Ab, specific activity of indicated mAb [1]: > 5 µg/mL | Specific HAI activity [2]: 0.04 µg/mL | neutralizing activity, specific activity [3]: 0.88 µg/mL | neutralizing activity, specific activity [4]: 1.8 µg/mL
